Measured values from publication PMC6573788.

B1: recombinant Asc1p-ybbR (S. cerevisiae RACK1 ortholog) (natural protein)
chain: MASNEVLVLRGTLEGHNGWVTSLATSAGQPNLLLSASRDKTLISWKLTGDDQKFGVPVRSFKGHSHIVQDCTLTADGAYALSASWDKTLRLWDVATGETYQRFVGHKSDVMSVDIDKKASMIISGSRDKTIKVWTIKGQCLATLLGHNDWVSQVRVVPNEKADDDSVTIISAGNDKMVKAWNLNQFQIEADFIGHNSNINTLTASPDGTLIASAGKDGEIMLWNLAAKKAMYTLSAQDEVFSLAFSPNRYWLAAATATGIKVFSLDPQYLVDDLRPEFAGYSKAAEPHAVSLAWSADGQTLFAGYTDNVIRVWQVMTAN

Experiments:
[1] = target: ΔRACK1 40S ribosomal subunit (human 40S subunit without RACK1) (human (endogenous in HAP1)) (UniProt P23396); assay: native gel or EMSA
[2] = target: ΔRACK1 40S ribosomal subunit (human 40S subunit without RACK1) (human (endogenous in HAP1)) (UniProt P23396); assay: FRET or BRET

| Molecule | t1/2 of RACK1 on the ribosome [1] [h] | kobs of the fast phase at 75 nM [2] [s⁻¹] | kon of the fast phase [2] [M⁻¹ s⁻¹] |
| --- | --- | --- | --- |
| native RACK1-ybbR expressed in ΔRACK1 HAP1 cells (from UniProt P63244 1-317) (natural protein) | 15 |  |  |
| B1 |  | 0.2 | 2e+06 |
